Positions count from the first letter of the chain named. Values belong to the binder of their own block, whether it stands above or below them.
Assays:
CEACAM5 N-A1-B1-His = biological target: T1, CEACAM5 N-A1-B1-His (human, UniProt P06731 35-322, limits assumed); test: SPR, Fab capt, 25C
T1 sequence: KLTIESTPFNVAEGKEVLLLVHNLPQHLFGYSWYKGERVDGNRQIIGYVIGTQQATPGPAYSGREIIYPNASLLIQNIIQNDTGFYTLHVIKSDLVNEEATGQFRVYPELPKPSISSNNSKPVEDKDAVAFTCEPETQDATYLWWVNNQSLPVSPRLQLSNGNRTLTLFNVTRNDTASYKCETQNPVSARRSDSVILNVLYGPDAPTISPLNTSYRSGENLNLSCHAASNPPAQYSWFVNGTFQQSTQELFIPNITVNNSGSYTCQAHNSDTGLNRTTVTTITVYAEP
Experimental: If the protein domain was an Fc fusion, AB0411, AB0466, AB0264, or AB0621 were captured using an anti-human Fab antibody (Cytiva, #28958325) immobilized onto a CM5 chip. The various hCEACAM5 protein domains (N-term, A1-B1, A2, B2, A3, or B3) were titrated over the captured TriNKETs at 50 μL/min for 180 sec of association and 300 sec of dissociation. The assay was run at 25° C. in HBS-EP+ running buffer, pH 7.4. The surface of the CM5 chip was regenerated using […] glycine pH 2.1.

human CEACAM5 on cells = biological target: T2, human CEACAM5 on cells (human, UniProt P06731 35-685); test: flow cytometry, HPAF-II cells
T2 construct: tumour cell lines with endogenous CEACAM5, or B16F10 engineered to express hCEACAM5; also called CEACAM5 on MKN-45, HPAF-II, SK-CO-1, LoVo, BxPC-3, Kato-III, LS-174T, ZR-75-30; hCEACAM5-B16F10
T2 sequence: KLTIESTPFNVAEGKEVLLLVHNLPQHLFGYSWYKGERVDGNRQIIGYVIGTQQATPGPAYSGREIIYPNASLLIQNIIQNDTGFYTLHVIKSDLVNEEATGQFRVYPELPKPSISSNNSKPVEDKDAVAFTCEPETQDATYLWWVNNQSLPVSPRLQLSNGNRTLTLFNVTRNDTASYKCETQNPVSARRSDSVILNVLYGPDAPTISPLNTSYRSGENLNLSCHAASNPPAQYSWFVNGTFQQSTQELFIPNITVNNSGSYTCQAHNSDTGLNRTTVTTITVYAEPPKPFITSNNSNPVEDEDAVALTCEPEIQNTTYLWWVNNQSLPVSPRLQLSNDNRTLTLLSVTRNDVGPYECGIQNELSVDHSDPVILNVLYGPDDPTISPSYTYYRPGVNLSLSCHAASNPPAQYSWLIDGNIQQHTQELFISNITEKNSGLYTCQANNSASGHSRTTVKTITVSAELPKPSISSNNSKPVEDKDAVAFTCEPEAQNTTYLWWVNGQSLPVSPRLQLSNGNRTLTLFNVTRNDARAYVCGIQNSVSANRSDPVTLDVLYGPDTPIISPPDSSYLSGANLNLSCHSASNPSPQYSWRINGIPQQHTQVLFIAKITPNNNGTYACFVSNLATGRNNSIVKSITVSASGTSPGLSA
Experimental: MKN-45 and HPAF-II human cancer cell lines were diluted into FACS buffer and 100,000 cells of each cell type were seeded per well in duplicate into 96-well plates for FACS staining. The cells were washed with PBS, incubated in a 1:2000 dilution of live/dead dye in PBS for 15 minutes, and then washed with FACS buffer. AB0264, AB0411, AB0466, and AB0621 were diluted into FACS buffer, and 50 μl of each diluted TriNKET was added to the cells. After incubation on ice for 30-120 minutes, the cells were washed with FACS buffer. Anti-human IgG-Fc secondary antibody was diluted into FACS buffer, and 50 μl was added per well for detection of the bound TriNKETs. The cells were incubated for 30-60 minutes on ice and then washed with FACS buffer. 50 μl of fixation buffer was added to each well and the cells were incubated for 10 minutes at room temperature. The cells were washed with FACS buffer and resuspended in FACS buffer for analysis with ThermoFisher Attune NxT, BD FACS Celesta SN #H66034400085, or BD FACS Celesta SN #H66034400160.
Cells of interest were identified using FSC vs. SSC plot and an appropriately shaped gate was drawn around the cells. Within the gated cells, doublet cells were removed by viewing FSC-H vs. FSC-A plot. Within the single cell population, live cells were gated. Within the live gate, the median fluorescence intensity (MFI) of each sample and the secondary-only control was calculated. Fold-over-background (FOB) was calculated as the ratio of test article MFI over secondary-only background MFI. Data were fit to a four-parameter non-linear regression curve using GraphPad Prism 7.0.

Human CEACAM5 (E398) = biological target: T3, Human CEACAM5 (E398) (human, UniProt P06731 35-685, limits assumed); test: SPR, anti-hFc capture, 37C, pH 6.0
T3 construct: also called hCEACAM5
T3 sequence: T2 sequence
Experimental: To determine the affinity and cross-reactivity of CEACAM5 TriNKET molecules, AB0411, AB0466, or AB0621 TriNKETs were captured using an anti-human Fc capture antibody (Cytiva, #BR100839) immobilized onto a Biacore CM5 standard surface sensor chip following manufacturer instructions. Human or cynomolgus CEACAM5 were titrated over captured AB0411, AB0466, and AB0621 as 2-fold serial dilutions starting from 300 nM. Association was monitored for 300 sec and dissociation was monitored for 600 sec. The assay was run at 37° C. at pH 7.4 and 6.0. The surface of the CM5 chip was regenerated with 10 mM glycine pH 1.5 for 20 sec at 100 μL/min.

[1] = biological target: T4, human CEACAM8 on Ba/F3 cells (human, UniProt P31997 35-320); test: flow cytometry on Ba/F3 cells expressing human CEACAM8, fold over background (FOB), 5-fold dilutions from 1600 nM
T4 construct: whole, on cells
T4 sequence (looked up): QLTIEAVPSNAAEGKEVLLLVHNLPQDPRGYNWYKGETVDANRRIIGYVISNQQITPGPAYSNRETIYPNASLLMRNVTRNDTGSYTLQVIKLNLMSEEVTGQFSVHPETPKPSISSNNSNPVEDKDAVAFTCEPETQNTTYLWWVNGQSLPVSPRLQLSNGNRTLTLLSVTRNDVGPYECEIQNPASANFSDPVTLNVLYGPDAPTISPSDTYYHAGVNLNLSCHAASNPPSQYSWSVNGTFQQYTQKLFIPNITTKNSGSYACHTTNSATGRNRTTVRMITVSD
Experimental: To examine the binding specificity of the TriNKETs to CEACAM5 compared to other CEACAM family members, Ba/F3 cells were engineered to express one of human CEACAM1, CEACAM6, CEACAM8, or cynomolgus CEACAM5. CEACAM5 TriNKETs were evaluated by flow cytometry starting at 1600 nM followed by 7 5-fold dilutions.

Kd (CEACAM5 N-A1-B1-His): 2.1 nM | kon (CEACAM5 N-A1-B1-His): 280000 M⁻¹ s⁻¹ | EC50 (human CEACAM5 on cells): 7.61 nM | Max FOB (human CEACAM5 on cells): 49 fold over background | Kd (Human CEACAM5 (E398)): 15 nM | kon (Human CEACAM5 (E398)): 160000 M⁻¹ s⁻¹ | binding result [1]: no binding (tested: 1600 nM)
B1: AB0466 F3' CEACAM5 TriNKET (bispecific antibody, human IgG1, kappa)
chain: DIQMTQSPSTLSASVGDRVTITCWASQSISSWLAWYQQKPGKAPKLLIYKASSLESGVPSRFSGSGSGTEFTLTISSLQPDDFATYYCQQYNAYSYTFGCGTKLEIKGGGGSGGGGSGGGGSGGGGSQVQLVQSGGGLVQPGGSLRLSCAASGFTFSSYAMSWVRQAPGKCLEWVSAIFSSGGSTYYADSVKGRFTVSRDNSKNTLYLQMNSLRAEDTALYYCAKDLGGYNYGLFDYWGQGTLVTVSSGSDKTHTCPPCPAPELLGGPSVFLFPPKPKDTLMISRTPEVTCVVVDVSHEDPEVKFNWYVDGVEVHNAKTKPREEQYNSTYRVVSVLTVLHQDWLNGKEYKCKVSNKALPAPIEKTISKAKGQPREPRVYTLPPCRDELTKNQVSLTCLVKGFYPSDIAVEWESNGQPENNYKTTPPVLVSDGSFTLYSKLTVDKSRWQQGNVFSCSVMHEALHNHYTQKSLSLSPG
heavy: EVQLVESGGGLVKPGGSLRLSCAASGFTFSSYSMNWVRQAPGKGLEWVSSISSSSSYIYYADSVKGRFTISRDNAKNSLYLQMNSLRAEDTAVYYCARGAPIGAAAGWFDPWGQGTLVTVSSASTKGPSVFPLAPSSKSTSGGTAALGCLVKDYFPEPVTVSWNSGALTSGVHTFPAVLQSSGLYSLSSVVTVPSSSLGTQTYICNVNHKPSNTKVDKKVEPKSCDKTHTCPPCPAPELLGGPSVFLFPPKPKDTLMISRTPEVTCVVVDVSHEDPEVKFNWYVDGVEVHNAKTKPREEQYNSTYRVVSVLTVLHQDWLNGKEYKCKVSNKALPAPIEKTISKAKGQPREPQVCTLPPSRDELTENQVSLTCLVKGFYPSDIAVEWESNGQPENNYKTTPPVLDSDGSFFLYSWLTVDKSRWQQGNVFSCSVMHEALHNHYTQKSLSLSPG
light: DIQMTQSPSSVSASVGDRVTITCRASQGISSWLAWYQQKPGKAPKLLIYAASSLQSGVPSRFSGSGSGTDFTLTISSLQPEDFATYYCQQGVSFPRTFGGGTKVEIKRTVAAPSVFIFPPSDEQLKSGTASVVCLLNNFYPREAKVQWKVDNALQSGNSQESVTEQDSKDSTYSLSSTLTLSKADYEKHKVYACEVTHQGLSSPVTKSFNRGEC

Kd (CEACAM5 N-A1-B1-His): 0.95 nM | kon (CEACAM5 N-A1-B1-His): 300000 M⁻¹ s⁻¹ | EC50 (human CEACAM5 on cells): 8.36 nM | Max FOB (human CEACAM5 on cells): 54.9 fold over background | Kd (Human CEACAM5 (E398)): 1.9 nM | kon (Human CEACAM5 (E398)): 310000 M⁻¹ s⁻¹
B2: AB0411 F3' CEACAM5 TriNKET (bispecific antibody, human IgG1, kappa)
chain: DIQLTQSPATLSVSPGERATLSCRASQSVSSSYLAWYQQKPGQAPRLLIYGASSRATGIPDRFSGSGSGTDFTLTISRLEPEDFAVYYCQQYNNWPLTFGCGTKVEIKGGGGSGGGGSGGGGSGGGGSQVQLVQSGGGLVQPGGSLRLSCAASGFTFTSYAMSWVRQAPGKCLEWVSAISGTGDSTFYADSVKGRFTFSRDNSKNTLYLQMNSLRAEDTAVYYCAKDLGWLQYGLFDYWGQGTLVTVSSGSDKTHTCPPCPAPELLGGPSVFLFPPKPKDTLMISRTPEVTCVVVDVSHEDPEVKFNWYVDGVEVHNAKTKPREEQYNSTYRVVSVLTVLHQDWLNGKEYKCKVSNKALPAPIEKTISKAKGQPREPRVYTLPPCRDELTKNQVSLTCLVKGFYPSDIAVEWESNGQPENNYKTTPPVLVSDGSFTLYSKLTVDKSRWQQGNVFSCSVMHEALHNHYTQKSLSLSPG
heavy: B1 heavy
light: B1 light

Kd (CEACAM5 N-A1-B1-His): 1.8 nM | kon (CEACAM5 N-A1-B1-His): 350000 M⁻¹ s⁻¹ | EC50 (human CEACAM5 on cells): 18.1 nM | Max FOB (human CEACAM5 on cells): 24.9 fold over background | Kd (Human CEACAM5 (E398)): 14 nM | kon (Human CEACAM5 (E398)): 140000 M⁻¹ s⁻¹ | binding result [1]: no binding (tested: 1600 nM)
B3: AB0621 F3' CEACAM5 TriNKET (bispecific antibody, human IgG1, kappa)
chain: DIVMTQSPDSLAVSLGERATINCKSSHSLLYGNFQNNYLAWYQQKPGQPPKLLIYWASTRESGVPDRFSGSGSGTDFTLTISSLQAEDVAVYYCQQYYSYPYTFGCGTKLEIKGGGGSGGGGSGGGGSGGGGSQVQLVQSGAEVKKPGASVKVSCKASGYTFTAYTIHWVRQAPGQCLEWMGYINPSSGYTEYNQKFKDRTTLTADTSISTAYMELSRLRSDDTAVYYCTREGGLLWFDYWGQGTLVTVSSGSDKTHTCPPCPAPELLGGPSVFLFPPKPKDTLMISRTPEVTCVVVDVSHEDPEVKFNWYVDGVEVHNAKTKPREEQYNSTYRVVSVLTVLHQDWLNGKEYKCKVSNKALPAPIEKTISKAKGQPREPRVYTLPPCRDELTKNQVSLTCLVKGFYPSDIAVEWESNGQPENNYKTTPPVLVSDGSFTLYSKLTVDKSRWQQGNVFSCSVMHEALHNHYTQKSLSLSPG
heavy: B1 heavy
light: B1 light

Kd (CEACAM5 N-A1-B1-His): 1.1 nM | kon (CEACAM5 N-A1-B1-His): 410000 M⁻¹ s⁻¹ | EC50 (human CEACAM5 on cells): 20.3 nM | Max FOB (human CEACAM5 on cells): 27.9 fold over background | binding result [1]: no binding (tested: 1600 nM)
B4: AB0264 F3' CEACAM5 TriNKET (bispecific antibody, human IgG1, kappa)
chain: B3 chain with S210P
heavy: B1 heavy
light: B1 light

Reference: patent US20240124607A1 (Merck Sharp & Dohme, published 2024)
